One molecule from paper PMC8113581 (2021) can be followed below.

The target in this experiment is SARS-CoV-2 RBD (WT) (SARS-CoV-2, UniProt P0DTC2). Kind of experiment: SPR. In general terms: SPR reads the build-up and loss of mass on a sensor chip optically.

The term Kd denotes the concentration at which binding is half-saturated. Higher therefore signals weaker binding.

B1: P4A1 (antibody, V domains shown)
VH: EVQLVESGGGLIQPGGSLRLSCAASGFIVSSNYMSWVRQAPGKGLEWVSIIYSGGSTFYADSVKGRFTISRDNSKNTLYLQMNSLRVEDTAVYYCARDLQELGSLDYWGQGTLVTVSS
VL: DIQMTQSPSSVSASVGDRVTITCRASQGISSWLAWYQQKPGKAPKLLIYAASSLQSGVPSRFSGSGSGTDFTLTISSLQPEDFATYYCQEANSFPYTFGQGTKLEIK
B1 yielded a Kd of 0.102 nM. This counts as sub-nanomolar.
